Tests used:
[1] = tested on: apoA-I rHDL; test: Stimulation of enzymatic activity of rePON1 192 isozymes by rHDL-apoA-I; assay type: biochemical; conditions: for Vmax (%) activation factor: relative to delipidated enzyme (100%)
Text: The activity is presented in relation to the initial activity of the delipidated enzymes (percentage of stimulation). Data were fitted to the Langmuir saturation curve, from which the activation factor (Vmax) and the apparent affinity (Kapp) were derived;
Stimulated activity is presented as the percentage of the initial activity of the delipidated enzymes (corresponds to 100%). Data were fitted to the Langmuir saturation curve, from which the activation factor (Vmax) and the apparent affinity (Kapp) were derived;
Delipidated rePONs at 0.2 μM were incubated with a range of rHDL concentrations (0.1-10 μM) for 3 hrs at 37° C. Enzymatic activity was determined in activity buffer (50 mM Tris pH 8.0, 1 mM CaCl2) with substrates at 1 mM concentrations as described [Gaidukov, L. and D. S. Tawfik, Biochemistry, 2005. 44(35): p. 11843-54]. 5-(thiobutyl)-butyrolactone (TBBL) was applied at 0.25 mM, and product formation was monitored spectrophotometrically at 412 nm using 5,5′-dithio-bis-2-nitrobenzoic acid (DTNB) as described [Khersonsky, O. and D. S. Tawfik, Chembiochem, 2006. 7(1): p. 49-53].
Stimulation of the enzymatic activity was examined by incubating rePON1 isozymes with a range of rHDL concentrations (at the HDL/PON ratio of 0.5-50), and measuring the catalytic activity with various substrates as detailed hereinabove. FIGS. 3A-B illustrate the enzymatic activity of the rePON1 isozymes with δ-nonanoic lactone as substrate (FIG. 3A) and thiobutyl butiryl lactone (TBBL) as substrate (FIG. 3B). FIGS. 4A-D illustrate the enzymatic activity of the rePON1 isozymes with γ-dodecanoic lactone as substrate (FIG. 4A), δ-valerolactone as substrate (FIG. 4B), phenyl acetate as substrate (FIG. 4C) and paraoxon as substrate (FIG. 4D). Data were fitted to the Langmuir saturation curve to give the activation factor Vmax (in percent relative to the delipidated PON1) and the apparent affinity Kapp.

[2] = tested on: apoA-I rHDL; test: Inactivation kinetics of rePON1 192 isozymes bound to rHDL-apoA-I (EDTA/β-mercaptoethanol, residual phenyl acetate hydrolysis); assay type: biochemical; conditions: apoA-I rHDL, 50-fold molar excess; EDTA and β-mercaptoethanol, 37° C.
Method: (§1) FIG. 1 is a graph showing the inactivation kinetics of the wild-type rePON1-192K (SEQ ID NO:2), -192R (SEQ ID NO:4) and -192Q (SEQ ID NO:6) isozymes, bound to rHDL-apoA-I, or in buffer. Delipidated enzymes were incubated with a 50-fold excess of rHDL-apoA-I, or in activity buffer, and subjected to inactivation in the presence of EDTA (5 mM) and β-mercaptoethanol (10 mM) at 37° C. Residual activity at various time points was determined by initial rates of phenyl acetate hydrolysis (2 mM) and plotted as percent of the activity at time zero. Data were fitted to a single exponential for wild-type rePON1-192K on rHDL-apoA-I, and to double-exponentials for the remaining samples. The inactivation rate constants and amplitudes were derived from this fit;
(§2) Inactivation rates of rePON1s were measured as described [Gaidukov, L. and D. S. Tawfik, Biochemistry, 2005. 44(35): p. 11843-54]. Briefly, rePON1 samples were delipidated using Bio-Beads SM-2 (BioRad) and incubated in buffer, or with 50-fold molar excess of rHDL-apoA-I. EDTA (10 mM) and β-mercaptoethanol (20 mM) were added, and samples were incubated at 37° C. Residual activity at different time points was determined with 2 mM phenyl acetate, and inactivation rates were fitted to either mono- or double-exponentials [Gaidukov, L. and D. S. Tawfik, Biochemistry, 2005. 44(35): p. 11843-54].
(§3) The resultant inactivation profiles of wt rePON1 (SEQ ID NO: 2), rePON1-192Q (SEQ ID NO: 6) and rePON1-192R (SEQ ID NO: 4), were fitted to exponential curves as illustrated in FIG. 1.

[3] = tested on: apoA-I rHDL; test: Surface plasmon resonance binding of Δ20-rePON1 192 isozymes to immobilized rHDL-apoA-I; conditions: relative to the Q isozyme
Method: FIGS. 2A-C are sensorgrams for the binding of wt Δ20-rePON1-192K—SEQ ID NO:8 (FIG. 2A), Δ20-rePON1-192R—SEQ ID NO:10 (FIG. 2B) and Δ20-rePON1-192Q—SEQ ID NO:12 (FIG. 2C) isozymes to rHDL-apoA-I. Biotinylated rHDL-apoA-I particles were immobilized onto the streptavidin surface (SA chip), and a series of PON1 concentrations were injected over the immobilized and blank surfaces to obtain the net binding response. Binding was performed at 25° C. Association and dissociation phases were fitted to a single exponential, from which kinetic rate constants were derived. PON1 concentrations in all the sensorgrams are (from bottom to top) 25, 40, 60, 80, 100, 150 and 200 nM;
Surface plasmon resonance (SPR) measurements: rHDL-apoA-I particles containing 0.7% of N-biotinyl-dipalmitoylphosphatidylethanolamine (N-biotynyl-DPPE; Avanti Polar Lipids) were prepared and purified as described [Gaidukov, L. and D. S. Tawfik, Biochemistry, 2005. 44(35): p. 11843-54]. SPR was performed on BIAcore 3000 (Uppsala, Sweden) as described [Gaidukov, L. and D. S. Tawfik, Biochemistry, 2005. 44(35): p. 11843-54]. Briefly, the biotinylated rHDL particles were adsorbed on streptavidin (SA5) chip, and Δ20-rePON1 isozymes were injected over the immobilized and blank surfaces to obtain the net binding response. Binding rate constants were obtained by fitting of association and dissociation phases to single exponentials as described [Gaidukov, L. and D. S. Tawfik, Biochemistry, 2005. 44(35): p. 11843-54].
The above results were further supported by affinity measurements using surface plasmon resonance. It was previously shown that HDL affinity of the intact rePON1 is very high (sub-nanomolar) and could not be determined accurately using surface plasmon resonance [Gaidukov, L., and Tawfik, D. S. (2005)Biochemistry 44, 11843-11854]. In contrast, binding affinity of the truncated variant lacking the first 20 amino acids of the hydrophobic N-terminus (Δ20-rePON1) could be amply determined. Therefore, the truncated variants of PON1 192 isozymes were prepared and their HDL binding affinities measured. Typical binding sensorgrams between Δ20-rePON1 isozymes and the immobilized HDL particles are portrayed in FIGS. 2A-C, and the derived rate and affinity constants are summarized in Table 2 herein below.

[4] = target: apoA-I rHDL; conditions: previously shown; could not be determined accurately by SPR; cited from earlier work
[5] = Inactivation kinetics of rePON1 192 isozymes in activity buffer; assay type: biochemical; conditions: EDTA and β-mercaptoethanol, 37° C.
Method: as §1, §2, §3

[6] = tested on: rHDL-apoA-I; test: Stimulation of enzymatic activity of human PON1 192 isozymes by rHDL-apoA-I; assay type: biochemical; conditions: all the lactones tested; rHDL/PON1 ratio of 50
Method: FIGS. 5A-B are graphs showing the inactivation and catalytic stimulation of the human PON1 192R/Q isozymes. FIG. 5A is a line graph showing the inactivation kinetics of human PON1-192R and -192Q in the presence of rHDL-apoA-I. The delipidated isozymes (0.2 μM) were incubated with a 50-fold molar excess of rHDL-apoA-I in activity buffer, and subjected to inactivation by NTA and β-mercaptoethanol (each at 5 mM) at 25° C. Residual activity determined as above (FIG. 1) and data were fitted to a double-exponential function. FIG. 5B is a bar graph showing stimulation of the enzymatic activity of human PON1-192R and -192Q by rHDL-apoA-I. The delipidated isozymes were incubated with a 50-fold molar excess of rHDL-apoA-I, and enzymatic activity was determined with various substrates (at 1 mM for all the substrates, except TBBL at 0.25 mM). The activity is presented in relation to the initial activity of the delipidated enzymes (percentage of stimulation). […]
Human PON1-192R and Q isozymes purified from pooled blood samples [Gan, K. N., et al., Drug Metab Dispos, 1991. […] Stimulation of enzymatic activities was measured with various substrates at 1 mM concentration, except for TBBL (0.25 mM).
HDL-mediated stimulation of the enzymatic activity of human PON1 isozymes was determined by incubating PON1 with the highest rHDL-apoA-I concentration (corresponding to the rHDL/PON1 ratio of 50) (FIG. 5B). […]

[7] = tested on: apoA-I rHDL; test: Inactivation kinetics of human PON1 192 isozymes on rHDL-apoA-I (NTA/β-mercaptoethanol); assay type: biochemical; conditions: 50-fold molar excess rHDL-apoA-I; NTA and β-mercaptoethanol each 5 mM, 25° C.
Method: FIGS. 5A-B are graphs showing the inactivation and catalytic stimulation of the human PON1 192R/Q isozymes. FIG. 5A is a line graph showing the inactivation kinetics of human PON1-192R and -192Q in the presence of rHDL-apoA-I. The delipidated isozymes (0.2 μM) were incubated with a 50-fold molar excess of rHDL-apoA-I in activity buffer, and subjected to inactivation by NTA and β-mercaptoethanol (each at 5 mM) at 25° C. Residual activity determined as above (FIG. 1) and data were fitted to a double-exponential function. FIG. 5B is a bar graph showing stimulation of the enzymatic activity of human PON1-192R and -192Q by rHDL-apoA-I. The delipidated isozymes were incubated with a 50-fold molar excess of rHDL-apoA-I, and enzymatic activity was determined with various substrates (at 1 mM for all the substrates, except TBBL at 0.25 mM). The activity is presented in relation to the initial activity of the delipidated enzymes (percentage of stimulation). Each bar represents the mean and S.D. of at least two independent measurements;
Human PON1-192R and Q isozymes purified from pooled blood samples [Gan, K. N., et al., Drug Metab Dispos, 1991. 19(1): p. 100-6] were kindly provided by Dr. Dragomir Draganov (University of Michigan, Ann Arbour), and stored in presence of 0.1% tergitol and 20% glycerol. Prior to assay, these samples were briefly delipidated [Gaidukov, L. and D. S. Tawfik, Biochemistry, 2005. 44(35): p. 11843-54] and dialyzed against activity buffer to remove the tergitol and glycerol that interfere with HDL binding. Dialyzed samples (0.2 μM) were incubated with rHDL (10 μM). Stability assays were performed at 25° C., in activity buffer supplemented with nitrilotriacetic acid (NTA) and β-mercaptoethanol, both at 5 mM. Data analysis was performed as described above for rePON1s. Stimulation of enzymatic activities was measured with various substrates at 1 mM concentration, except for TBBL (0.25 mM).
The progress of inactivation of human PON1 isozymes anchored on rHDL-apoA-I is illustrated in FIG. 5A. Inactivation of both isozymes followed a two-phase kinetics with similar inactivation rates, but different partitioning between the HDL-bound and unbound phases, as detailed in Table 4 hereinbelow. Amplitudes (A) and kinetic rates of inactivation (k^inactiv) were derived by fitting the data to a double-exponential curve.

[8] = substrate γ-dodecanoic lactone 1 mM
[9] = substrate δ-nonanoic lactone 1 mM

B1: wt rePON1-192K: recombinant wild-type PON1 variant G3C9 with C-terminal His8-tag, lysine at position 192, close homologue of rabbit PON1 (protein)
chain: MAKLTALTLLGLGLALFDGQKSSFQTRFNVHREVTPVELPNCNLVKGVDNGSEDLEILPNGLAFISSGLKYPGIMSFDPDKSGKILLMDLNEEDPVVLELGITGNTLDISSFNPHGISTFTDEDNTVYLLVVNHPDSSSTVEVFKFQEEEKSLLHLKTIRHKLLPSVNDIVAVGPEHFYATNDHYFADPYLKSWEMHLGLAWSFVTYYSPNDVRVVAEGFDFANGINISPDGKYVYIAELLAHKIHVYEKHANWTLTPLKSLDFDTLVDNISVDPVTGDLWVGCHPNGMRIFYYDPKNPPGSEVLRIQDILSEEPKVTVVYAENGTVLQGSTVAAVYKGKLLIGTVFHKALYCEL
modifications: C-terminal His8 tag; WT rePON1-192K
notes: recombinant wild-type PON1 variant G3C9 with C-terminal His8-tag, lysine at position 192, close homologue of rabbit PON1
- Kapp (apparent affinity for HDL stimulation) ([1]; substrate TBBL 0.25 mM): 0.5 ± 0.1 µM
- Vmax (%) activation factor ([1]; substrate TBBL 0.25 mM): 791 ± 10%
- Kapp (apparent affinity for HDL stimulation) ([1]; substrate paraoxon 1 mM): 0.6 ± 0.1 µM
- Vmax (%) activation factor ([1]; substrate paraoxon 1 mM): 222 ± 2%
- Kapp (apparent affinity for HDL stimulation) ([1]; substrate phenyl acetate 1 mM): 0.5 ± 0.1 µM
- Vmax (%) activation factor ([1]; substrate phenyl acetate 1 mM): 425 ± 4%
- Kapp (apparent affinity for HDL stimulation) [1, 8]: 1.2 ± 0.1 µM
- Vmax (%) activation factor [1, 8]: 1830 ± 22%
- Kapp (apparent affinity for HDL stimulation) [1, 9]: 1.3 ± 0.1 µM
- Vmax (%) activation factor [1, 9]: 1580 ± 19%
- Kapp (apparent affinity for HDL stimulation) ([1]; substrate δ-valerolactone 1 mM): 1.3 ± 0.1 µM
- Vmax (%) activation factor ([1]; substrate δ-valerolactone 1 mM): 1724 ± 23%
- A2 (%) (amplitude of second, slow inactivation phase = HDL-bound fraction) [2]: 100%
- k2^inactiv (second, slow phase) [2]: 0.01 h⁻¹
- fold higher HDL binding affinity than the Q isozyme [3]: 3 fold
- HDL affinity of the intact rePON1 [4]: sub-nanomolar
- k1^inactiv (first, fast phase) [5]: 4.5 h⁻¹
- k2^inactiv (second, slow phase) [5]: 0.2 h⁻¹

B2: human PON1-192R: human PON1 192R isozyme purified from pooled blood samples (protein)
chain: AKLIALTLLGMGLALFRNHQSSYQTRLNALREVQPVELPNCNLVKGIETGSEDLEILPNGLAFISSGLKYPGIKSFNPNSPGKILLMDLNEEDPTVLELGITGSKFDVSSFNPHGISTFTDEDNAMYLLVVNHPDAKSTVELFKFQEEEKSLLHLKTIRHKLLPNLNDIVAVGPEHFYGTNDHYFLDPYLRSWEMYLGLAWSYVVYYSPSEVRVVAEGFDFANGINISPDGKYVYIAELLAHKIHVYEKHANWTLTPLKSLDFNTLVDNISVDPETGDLWVGCHPNGMKIFFYDSENPPASEVLRIQNILTEEPKVTQVYAENGTVLQGSTVASVYKGKLLIGTVFHKALYCEL
- fold higher activation level than 192Q [6]: about 2 fold
- A2(%) (slow phase, HDL-bound fraction) [7]: 87%
- k1^inactiv (first, fast phase) [7]: 0.4 h⁻¹
- k2^inactiv (second, slow phase) [7]: 0.01 h⁻¹
